Assay results reported in the Immune Epitope Database (IEDB).

Tests used:
Test in all cases: IEDB peptide-MHC binding, purified MHC/competitive/radioactivity; filed as Kd, often an IC50 or EC50 that approximates it; ≥ and ≤ were set here for values at or beyond the usual limits of such assays
HLA-A*02:03 = target: HLA-A*02:03
HLA-A*02:02 = target: HLA-A*02:02
HLA-A*02:06 = target: HLA-A*02:06
HLA-A*68:01 = target: HLA-A*68:01
HLA-A*33:01 = target: HLA-A*33:01
HLA-A*11:01 = target: HLA-A*11:01
HLA-A*31:01 = target: HLA-A*31:01
HLA-A*03:01 = target: HLA-A*03:01
[1] = source organism: Vaccinia virus WR
[2] = source organism: Dengue virus 4 Philippines/H241/1956
[3] = source organism: SARS coronavirus Tor2
[4] = source organism: Lymphocytic choriomeningitis virus (strain Armstrong)

FLAHYIGTS was tested, and the Kd (HLA-A*02:03; source organism: Dengue virus 3 Martinique/1243/1999) was 10.7 nM.
DVNSVQFSI was tested, and the Kd (HLA-A*02:02; [1]) was 10400 nM, the Kd (HLA-A*02:06; [1]) was 16900 nM and the Kd (HLA-A*02:03; [1]) was 16200 nM.
Sequence GQVMLLILCV has a Kd (HLA-A*02:06; source organism: Dengue virus 2 Jamaica/1409/1983) of 77.2 nM.
Work on IVCIVAAVII yielded a Kd (HLA-A*02:02; [1]) of 1460 nM, a Kd (HLA-A*02:06; [1]) of 3560 nM and a Kd (HLA-A*02:03; [1]) of 1590 nM.
In the case of RAKRKPAMST, the Kd (HLA-A*02:02; [1]) is reported as 977 nM, the Kd (HLA-A*02:06; [1]) is reported as 1550 nM and the Kd (HLA-A*02:03; [1]) is reported as 1380 nM.
In the case of ILATLNTLIT, the Kd (HLA-A*02:02; [1]) is reported as 6.95 nM, the Kd (HLA-A*02:06; [1]) is reported as 629 nM and the Kd (HLA-A*02:03; [1]) is reported as 12.3 nM.
ITFLRPVLKA was tested, and the Kd (HLA-A*02:02; [1]) was 3160 nM, the Kd (HLA-A*02:06; [1]) was 18000 nM and the Kd (HLA-A*02:03; [1]) was 718 nM.
For TLALSLTFI, the Kd (HLA-A*02:03; [2]) was 1.04 nM.
Work on ALYKGFQFI yielded a Kd (HLA-A*02:02; [3]) of 0.532 nM, a Kd (HLA-A*02:06; [3]) of 2.03 nM and a Kd (HLA-A*02:03; [3]) of 3.32 nM.
For AVYNFATCGI, the Kd (HLA-A*02:02; [4]) was 25.3 nM, the Kd (HLA-A*02:06; [4]) was 25.2 nM and the Kd (HLA-A*02:03; [4]) was 7.28 nM.
TIFDIVSKCI showed a Kd (HLA-A*02:02; [1]) of 198 nM, a Kd (HLA-A*02:06; [1]) of 701 nM and a Kd (HLA-A*02:03; [1]) of 94.4 nM.
For FLRPVLKAM, the Kd (HLA-A*02:02; [1]) was 1380 nM, the Kd (HLA-A*02:06; [1]) was 5480 nM and the Kd (HLA-A*02:03; [1]) was 9.75 nM.
Work on STFNMWREI yielded a Kd (HLA-A*02:02; [1]) of 5820 nM, a Kd (HLA-A*02:06; [1]) of 94.6 nM and a Kd (HLA-A*02:03; [1]) of 713 nM.
FLNGSCGSV was tested, and the Kd (HLA-A*02:02; [3]) was 1.05 nM, the Kd (HLA-A*02:06; [3]) was 64.5 nM and the Kd (HLA-A*02:03; [3]) was 0.571 nM.
SVDFVVNGHT gave a Kd (HLA-A*02:02; [1]) of no less than 70000 nM, a Kd (HLA-A*02:06; [1]) of no less than 69800 nM and a Kd (HLA-A*02:03; [1]) of no less than 70400 nM.
LLAMGCYSQV showed a Kd (HLA-A*02:03; [2]) of 2.67 nM.
For EQRRSTIFDI, the Kd (HLA-A*02:02; [1]) was no less than 23000 nM, the Kd (HLA-A*02:06; [1]) was no less than 25600 nM and the Kd (HLA-A*02:03; [1]) was 11400 nM.
For QILEENMEV, the Kd (HLA-A*02:06; [2]) was 30.5 nM.
Work on SIKMIYDLNA yielded a Kd (HLA-A*02:02; [1]) of 852 nM, a Kd (HLA-A*02:06; [1]) of 1030 nM and a Kd (HLA-A*02:03; [1]) of 257 nM.
With YLSSVLLAL the Kd (HLA-A*02:02; [3]) was 0.144 nM, the Kd (HLA-A*02:06; [3]) was 8.16 nM and the Kd (HLA-A*02:03; [3]) was 0.308 nM.
With KIIAVFDSKL the Kd (HLA-A*02:02; [1]) was 24.6 nM, the Kd (HLA-A*02:06; [1]) was 59.4 nM and the Kd (HLA-A*02:03; [1]) was 56.8 nM.
MAVEVGSIR gave a Kd (HLA-A*68:01; [1]) of 1.36 nM, a Kd (HLA-A*33:01; [1]) of 245 nM and a Kd (HLA-A*11:01; [1]) of 39.5 nM. The Kd (HLA-A*31:01; [1]) was 279 nM and the Kd (HLA-A*03:01; [1]) was no less than 78000 nM.
MLLTFLTSL gave a Kd (HLA-A*02:02; [3]) of 6.21 nM, a Kd (HLA-A*02:06; [3]) of 3.63 nM and a Kd (HLA-A*02:03; [3]) of 4.84 nM.
LMLKATLLCV gave a Kd (HLA-A*02:02; [3]) of 3.39 nM, a Kd (HLA-A*02:06; [3]) of 63.4 nM and a Kd (HLA-A*02:03; [3]) of 20.9 nM.
For QVKDNIISR, the Kd (HLA-A*68:01; [1]) was 11.3 nM, the Kd (HLA-A*33:01; [1]) was 64.8 nM and the Kd (HLA-A*11:01; [1]) was 185 nM. The Kd (HLA-A*31:01; [1]) was 908 nM and the Kd (HLA-A*03:01; [1]) was 2550 nM.
With NLCTHSFRK the Kd (HLA-A*68:01; [3]) was no less than 24400 nM, the Kd (HLA-A*33:01; [3]) was 9700 nM and the Kd (HLA-A*11:01; [3]) was 7900 nM. It also gave a Kd (HLA-A*31:01; [3]) of 13600 nM and a Kd (HLA-A*03:01; [3]) of 2430 nM.
TILATLNTLI showed a Kd (HLA-A*02:02; [1]) of 39.5 nM, a Kd (HLA-A*02:06; [1]) of 335 nM and a Kd (HLA-A*02:03; [1]) of 29.7 nM.
